Results reported in publication PMC8611056.

Tests used:
[1] = molecular target: vWF on calcium ionophore-activated HUVEC monolayers (human (endogenous in HUVEC)); experiment: bacterial adhesion to cell monolayers (ELISA-type); ionophore-treated HUVEC monolayers incubated for 1 h with S. aureus SH1000 WT or isdB mutant (with or without 250 ng/well mAb 6D1 or isotype control), or with L. lactis with pNZ8037::isdB or empty vector
[2] = molecular target: human von Willebrand factor (human) (UniProt P04275); experiment: ELISA; competition: wells coated with 1 μg of vWF, 1 μg of IsdB with or without 10 μg/well of each vWF ligand; detected with anti-IsdB IgG; percent of control without competitor
[3] = molecular target: IsdB NEAT2 (aa residues 334-458) (S. aureus SH1000) (UniProt Q2FZF0); experiment: SPR; Biacore X-100; 6xHis-IsdB proteins captured on Ni2+-NTA chip, A1 lacking the 6xHis tag as analyte (0.08 to 1.25 μM), single-cycle mode, 25 °C; heterogeneous ligand binding model (two ligand populations L1, L2); buffer PBS with 0.005% Tween 20 or HBS-EP+ (methods)
[4] = molecular target: IsdB NEAT1 (aa residues 144-270) (S. aureus SH1000) (UniProt Q2FZF0); experiment: as above
[5] = molecular target: IsdB NEAT1-NEAT2 (aa residues 48-480) (S. aureus SH1000) (UniProt Q2FZF0); experiment: as above

Substance: IsdB on S. aureus SH1000 cells (from UniProt Q2FZF0 41-613) (natural protein)
- adhesion of wild-type cells over isdB mutant cells [1]: 3 times

Substance: collagen type IV (complex)
- reduction of IsdB NEAT1-NEAT2 binding to vWF at 10 μg/well [2]: 50%

Substance: collagen type VI (complex)
- reduction of IsdB NEAT1-NEAT2 binding to vWF at 10 μg/well [2]: 50%

Substance: recombinant vWF A1 domain lacking the 6xHis tag (domain or fragment)
- KD1 (ligand population L1) [3]: 0.3 µM
- KD2 (ligand population L2) [3]: 0.4 µM
- KD1 (ligand population L1) [4]: 53 µM
- KD2 (ligand population L2) [4]: 5.3 µM
- KD1 (ligand population L1) [5]: 1.7 µM
- KD2 (ligand population L2) [5]: 0.9 µM
